The data set is described as follows: self-splicing fitness, log relative to wild type (ln ratio); higher = more splicing; Tetrahymena group I intron in knt gene, E. coli kanamycin selection, DiMSum; sequences stand for … in CUCUCU…GGAGGGAAAAGUUAUCAGGCAUGCACCUGGUAGCUAGUCUUUAAACCAAUAGAUUGCAUCGGUUUAAAAGGCAAGACCGUCAAAUUGCGGGAAAGGGGUCAACAGCCGUUCAGUACCAAGUCUCAGGGGAAACUUUGAGAUGGCCUUGCAAAGGGUAUGGUAAUAAGCUGACGGACAUGGUCCUAACCACGCAGCCAAGUCCUAAGUCAACAGAUCUUCUGUUGAUAUGGAUGCAGUUCACAGACUAAAUGUCGGUCGGGGAAGAUGUAUUCUUCUCAUAAGAUAUAGUCGGACCUCUCCUUAAUGGGAGCUAGCGGAUGAAGUGAUGCAACACUGGAGCCGCUGGGAACUAAUUUGUAUGCGAAAGUAUAUUGAUUAGUUUUGGAGUACUCGUGGUCG
A digest of the protocol: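 The eight P1ex-region nucleotides of an intron in the knt kanamycin-resistance gene on pET-22b(+) were all randomised and the library put into E. coli BL21(DE3). Six replicate transformations were grown overnight at 37°C or 30°C on LB agar with or without 25 μg/mL kanamycin, together with 100 μg/mL carbenicillin, 50 μM IPTG and 0.2% rhamnose. Colonies were pooled and amplicon-sequenced on an Illumina HiSeq 2500. Fitness from DiMSum is the error-weighted combination of wild-type-normalised replicate fold changes, kanamycin over none.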

± gives the uncertainty stated by the source.

As for GUCAAGCAAUAUUACGGCCG, the “self-splicing fitness (ln)” value (30 °C) is -2.31 ± 0.4. Turning to UAGAAGCAAUAUUACGAAUG, the “self-splicing fitness (ln)” value was -0.651 ± 0.071 (30 °C) and -0.298 ± 0.09 (37 °C). Taken in the same sequence, the figures for AUCCAGCAAUAUUACGUUCG were -2.47 ± 0.1 and -0.92 ± 0.12. On to ACCGAGCAAUAUUACGGCUC, for which the “self-splicing fitness (ln)” value runs as follows: (30 °C) -4.07 ± 0.39; (37 °C) -1.54 ± 0.35.

Turning to AUCUAGCAAUAUUACGCUCA, the “self-splicing fitness (ln)” value (30 °C) is -0.577 ± 0.17 and the “self-splicing fitness (ln)” value (37 °C) is -0.0187 ± 0.2. For UGCUAGCAAUAUUACGGGCU, the “self-splicing fitness (ln)” value by setting is: (30 °C) -2.57 ± 0.13; (37 °C) -1.89 ± 0.14. For the sequence UCGGAGCAAUAUUACGAGCU, the “self-splicing fitness (ln)” value (30 °C) was -2.89 ± 0.27. Turning to AUAAAGCAAUAUUACGACUU, the “self-splicing fitness (ln)” value by setting is: (30 °C) 0.0576 ± 0.088; (37 °C) 0.686 ± 0.13.

For ACGCAGCAAUAUUACGCCUU, the “self-splicing fitness (ln)” value is -0.484 ± 0.082 (30 °C) and 0.1 ± 0.095 (37 °C).

For the sequence GGUGAGCAAUAUUACGACUA, the “self-splicing fitness (ln)” value is -0.202 ± 0.17 (30 °C) and -0.327 ± 0.17 (37 °C).

On to CCUUAGCAAUAUUACGACCA, for which, for the setting “30 °C”, the “self-splicing fitness (ln)” value is -2.66 ± 0.36. Consider AAACAGCAAUAUUACGAGAU, for which the “self-splicing fitness (ln)” value by setting is: (30 °C) -3.64 ± 0.2; (37 °C) -2 ± 0.15.

In the case of CUGCAGCAAUAUUACGCGAA, the “self-splicing fitness (ln)” value runs as follows: (30 °C) -3.31 ± 0.33; (37 °C) -2.52 ± 0.27. For UAAUAGCAAUAUUACGUAGA, the “self-splicing fitness (ln)” value was -3.52 ± 0.18 (30 °C) and -1.98 ± 0.17 (37 °C). As for GCUCAGCAAUAUUACGCCAA, the “self-splicing fitness (ln)” value (30 °C) is -1.52 ± 0.42. Regarding ACAAAGCAAUAUUACGGACG, the “self-splicing fitness (ln)” value (30 °C) is -0.851 ± 0.045 and the “self-splicing fitness (ln)” value (37 °C) was -0.124 ± 0.065. For UGGGAGCAAUAUUACGAUCA the same measures were -0.66 ± 0.22 and -0.124 ± 0.19. For GCUCAGCAAUAUUACGGGAG, the “self-splicing fitness (ln)” value runs as follows: (30 °C) -2.46 ± 0.12; (37 °C) -1.22 ± 0.11. For UACCAGCAAUAUUACGCAGG the same measures were -3.68 ± 0.21 and -2.37 ± 0.27. For AGGUAGCAAUAUUACGUUAG the same measures were -3.842 ± 0.029 and -2.87 ± 0.042. Taken in the same sequence, the figures for GCAGAGCAAUAUUACGAGAC were -3.42 ± 0.21 and -2.03 ± 0.12.

In the case of GGAAAGCAAUAUUACGAAGA, the “self-splicing fitness (ln)” value is -2.45 ± 0.3 (30 °C) and -1.57 ± 0.21 (37 °C). As for UAGAAGCAAUAUUACGCUCA, the “self-splicing fitness (ln)” value is, setting by setting: (30 °C) 0.205 ± 0.16; (37 °C) -0.337 ± 0.18. In the case of GGUUAGCAAUAUUACGAGGG, the “self-splicing fitness (ln)” value is, setting by setting: (30 °C) -3.05 ± 0.21; (37 °C) -2.28 ± 0.34. For GGUGAGCAAUAUUACGGUCA the same measures were -1.77 ± 0.32 and -1.79 ± 0.38. For UAACAGCAAUAUUACGGAGA the same measures were -3.27 ± 0.21 and -1.1 ± 0.11. For UUCCAGCAAUAUUACGACUG the same measures were -3.9 ± 0.21 and -2.99 ± 0.23. As for CAAGAGCAAUAUUACGCAUG, the “self-splicing fitness (ln)” value reads like this: (30 °C) -3.69 ± 0.44; (37 °C) -2.53 ± 0.29. For CUGAAGCAAUAUUACGCGAA the same measures were -3.12 ± 0.32 and -0.319 ± 0.18.

Regarding GUUUAGCAAUAUUACGAGGU, the “self-splicing fitness (ln)” value runs as follows: (30 °C) -3.03 ± 0.2; (37 °C) -2.03 ± 0.2. For the sequence AGCCAGCAAUAUUACGCAAG, the “self-splicing fitness (ln)” value reads like this: (30 °C) -3.8 ± 0.34; (37 °C) -2.98 ± 0.4. For CGUUAGCAAUAUUACGUUAU the same measures were -2.76 ± 0.34 and -2.18 ± 0.37. For GCUGAGCAAUAUUACGUGUG the same measures were -3.29 ± 0.12 and -1.9 ± 0.1.

Regarding AUCAAGCAAUAUUACGUGAU, the “self-splicing fitness (ln)” value was -3.81 ± 0.2 (30 °C) and -2.23 ± 0.17 (37 °C). For GACAAGCAAUAUUACGGUAA the same measures were -1.69 ± 0.11 and -0.907 ± 0.11. For AUUAAGCAAUAUUACGCUAC, the “self-splicing fitness (ln)” value is -2.45 ± 0.43 (30 °C) and -3.4 ± 0.35 (37 °C). For UUCGAGCAAUAUUACGAUCA the same measures were -1.89 ± 0.2 and -0.432 ± 0.14. In the case of UUAGAGCAAUAUUACGAACG, the “self-splicing fitness (ln)” value by setting is: (30 °C) -0.913 ± 0.22; (37 °C) -0.303 ± 0.19. For UUCAAGCAAUAUUACGUACG the same measures were -1.19 ± 0.13 and -0.699 ± 0.21.

With UUCCAGCAAUAUUACGCUGU, the “self-splicing fitness (ln)” value (30 °C) was -3.96 ± 0.24 and the “self-splicing fitness (ln)” value (37 °C) was -2.42 ± 0.22. For CUUGAGCAAUAUUACGGGUU the same measures were -2.91 ± 0.32 and -2.92 ± 0.28. For CCCUAGCAAUAUUACGCCGG the same measures were -3.09 ± 0.17 and -1.6 ± 0.22. Taken in the same sequence, the figures for GAAGAGCAAUAUUACGCCUC were -3.27 ± 0.32 and -2.96 ± 0.32. Regarding UUCUAGCAAUAUUACGGCCU, the “self-splicing fitness (ln)” value (30 °C) is -3.05 ± 0.38.

On to UAUCAGCAAUAUUACGCGGG, for which the “self-splicing fitness (ln)” value (30 °C) is -0.936 ± 0.076 and the “self-splicing fitness (ln)” value (37 °C) was -1.14 ± 0.098. For GGAAAGCAAUAUUACGGUCU the same measures were -2.31 ± 0.12 and -1.17 ± 0.15. Taken in the same sequence, the figures for CAUGAGCAAUAUUACGAAGG were -3.17 ± 0.19 and -2.05 ± 0.21. Taken in the same sequence, the figures for CCUAAGCAAUAUUACGACUA were -2.87 ± 0.4 and -1.59 ± 0.33. As to GCACAGCAAUAUUACGGGAU, the “self-splicing fitness (ln)” value by setting is: (30 °C) -1.01 ± 0.073; (37 °C) -1.02 ± 0.087. For AUAAAGCAAUAUUACGAUUU the same measures were 0.496 ± 0.082 and 0.827 ± 0.1. For CUCUAGCAAUAUUACGUGAA the same measures were -3.77 ± 0.21 and -3.07 ± 0.25.

Regarding UGCUAGCAAUAUUACGAAAC, the “self-splicing fitness (ln)” value (30 °C) is -2.87 ± 0.33 and the “self-splicing fitness (ln)” value (37 °C) was -2.17 ± 0.31. Turning to GUGGAGCAAUAUUACGAAAC, the “self-splicing fitness (ln)” value (37 °C) was -2.23 ± 0.3. CCUAAGCAAUAUUACGACGG: the “self-splicing fitness (ln)” value by setting is: (30 °C) -3.49 ± 0.19; (37 °C) -2.24 ± 0.24.

As to CCCUAGCAAUAUUACGGUAU, the “self-splicing fitness (ln)” value runs as follows: (30 °C) -3.5 ± 0.14; (37 °C) -2.13 ± 0.14. For GGCCAGCAAUAUUACGACGA the same measures were -2.9 ± 0.16 and -1.98 ± 0.12. With GCCAAGCAAUAUUACGUUUA, the “self-splicing fitness (ln)” value by setting is: (30 °C) -2.97 ± 0.19; (37 °C) -2.28 ± 0.18.

Regarding UGUGAGCAAUAUUACGAUAA, the “self-splicing fitness (ln)” value is, setting by setting: (30 °C) -2.33 ± 0.16; (37 °C) -1.92 ± 0.21. In the case of GUGAAGCAAUAUUACGAAAG, the “self-splicing fitness (ln)” value was -1.41 ± 0.15 (30 °C) and -0.599 ± 0.15 (37 °C). For AACGAGCAAUAUUACGACGC the same measures were -2 ± 0.14 and -0.785 ± 0.18. For CCUCAGCAAUAUUACGGCAA the same measures were -3.12 ± 0.24 and -2.41 ± 0.23. Consider CCUUAGCAAUAUUACGCUAU, for which the “self-splicing fitness (ln)” value by setting is: (30 °C) -3.14 ± 0.14; (37 °C) -2.64 ± 0.18. Consider CAGUAGCAAUAUUACGGGUG, for which the “self-splicing fitness (ln)” value by setting is: (30 °C) -0.853 ± 0.06; (37 °C) -0.398 ± 0.078. In the case of AGGAAGCAAUAUUACGCUAG, under “30 °C”, the “self-splicing fitness (ln)” value is -2.44 ± 0.42. With UCGUAGCAAUAUUACGACAC, the “self-splicing fitness (ln)” value is, setting by setting: (30 °C) -3.54 ± 0.34; (37 °C) -2.7 ± 0.4. For CCAUAGCAAUAUUACGAAUU the same measures were -3.3 ± 0.23 and -2.51 ± 0.39. Taken in the same sequence, the figures for AAAAAGCAAUAUUACGCAAU were -0.871 ± 0.076 and -1.08 ± 0.13. Turning to AGAUAGCAAUAUUACGCUAC, the “self-splicing fitness (ln)” value was -2.97 ± 0.44 (30 °C) and -2.56 ± 0.38 (37 °C). Taken in the same sequence, the figures for CCGUAGCAAUAUUACGUUUU were -4.21 ± 0.23 and -2.87 ± 0.22.

GUCCAGCAAUAUUACGGUAC: the “self-splicing fitness (ln)” value is, setting by setting: (30 °C) -2.97 ± 0.18; (37 °C) -1.92 ± 0.17. For GCAUAGCAAUAUUACGAUAU the same measures were -1.9 ± 0.084 and 0.148 ± 0.09. For GCAGAGCAAUAUUACGACGC the same measures were -3.56 ± 0.3 and -1.69 ± 0.18. Taken in the same sequence, the figures for ACUCAGCAAUAUUACGACUC were -0.493 ± 0.054 and -0.0647 ± 0.068. For AAUCAGCAAUAUUACGAUUA, the “self-splicing fitness (ln)” value by setting is: (30 °C) -0.229 ± 0.088; (37 °C) -0.426 ± 0.088.

As for CUCAAGCAAUAUUACGUCGG, the “self-splicing fitness (ln)” value is -2.02 ± 0.1 (30 °C) and -1.27 ± 0.11 (37 °C). For the sequence CCCGAGCAAUAUUACGAGGU, the “self-splicing fitness (ln)” value is, setting by setting: (30 °C) -3.75 ± 0.15; (37 °C) -3.11 ± 0.17. For CCCCAGCAAUAUUACGAUUC the same measures were -3.81 ± 0.2 and -2.46 ± 0.23.

(Values after the supplement of paper PMC7877785.)
